Measured values published in the nanobody polyreactivity screen of Harvey et al. (2022).

Assay: yeast display, Sf9 membrane polyspecificity reagent, FACS + sequencing; frameworks hold sequencing errors
Method in brief: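 A synthetic nanobody library was expressed on Saccharomyces cerevisiae BJ5465 by galactose induction for 36–48 hours. The library was stained for 1 hour at 4 °C with 10% biotinylated, detergent-solubilized Sf9 membrane reagent and enriched with streptavidin microbeads before FACS. Low and high (top ~1%) gates were set on anti-HA fluorescence for expression and streptavidin fluorescence for reagent binding, and each polyreactivity label reflects the gate of origin.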

Row | Sequence | polyreactivity (PSR sort gate)
1 | QVQHVESGGGLVQAGGSLRLSCAASGRTFYSYAMGWYRQAPGKERELVAAISGRGGRTYYADSVKGRFTISRDNAKNTVYLQMNSLKPEDSAVYFCAKGGYAIRYYGFDYWGQGTQVTVSS | high polyreactivity
2 | QVQLVESGGGLVQAGGSLRLSCAASGFTFSVNAMGWYRQAPGKERELVAAISSRGGSTYYADSVKGRFTISRDNAKNTVYLQMNSLKPEDTAVYYCAKYPFYRSRHLGYWGQGTQVTVSS | high polyreactivity
3 | QVQLVESGGGLVQAGGSLRLSCAASGFTFGVYARGWYRQAPGKERELVAAISRSSGRTYYADSVKWRFTISRDNAKNTVYLQMNSLKPEDTAVYYCAADLRYYGYYTRFRYYEMDYWGQGTQVTVSS | high polyreactivity
4 | QVQLVESGGGLVQAGASLRLSCAASGNTFDVYAMGWYREAPGKERELVAAISRRGGSTSYADSVKGRFTISRDNAKNTFYFHMNSLKPEDTAVYYCNTDPGKYTPFDYLGQGTQVTVSS | high polyreactivity
5 | QVQLVESGGGLVQAGGSLRLSCAASGFIFALYARGWYRQAPGTERELVAAITSSSSTYAASVKGRFTISRDNAKNTVYLQMNSLKPEDTAVYYCAADTYSYRYSNDYWGQGTQVTVSS | low polyreactivity
6 | QVQLVESGGGLVQAGGSLRLSCAASGSTFAVYTMGWYRQAPGKERELSTSYADSVKGRFTISRDNAKNTVYLQMNSLKPEDTAVYYCNRDFYEFDSNSYRFDYWGQGTQVTVSS | low polyreactivity
7 | QVQLVESGGGLVQARGSLRLSCAASGLTVGYNAMGWYRQARVKEWELVGAISSNGGRTYYADSVKGRFTISRDNAKNTVYLQMNSLKPEDTAVYYCNARYTGSSLYYWGQGTQVTVSS | high polyreactivity
8 | QVQLVESGGGLVQAGGSLPLSCAASGRTIDHYAMGWYRQAPGKERELVAAITSGGSTYYADSVKGRFTISRDNAKNTVYLQMNSLKPEDTAVYYCNKDSSFWGYYIAQVNERDYWGQGTQVTVSS | low polyreactivity
9 | QVQLVESGGGLVQAGGSLRLSCAASGSTFVQNAMGWYRQAPGKERELVAAISRTGGSTYYADSVKGRFTISRDNAKNTVYLQMKSLIPEDTAVYYCATRPPHYSWPKIIEFGSWGQGSQVTVSS | high polyreactivity
10 | QVQLVESGGGLVQAGGSLRLSCAASGYIFDYYAMGWYRQAPWKERELVAAISSSGGTTYYADSVKGRFTISRDNAKNTVYLQMNSLKPEDTAVYYCAARKSRWQRGYYYWGQGTQVTVSS | high polyreactivity
11 | QDQLVESGGGLVQAGGSLRLSCAASGFTFGNNARGWYRQAPGKERQFVATISRRGGSTYYADSVKGRFTISRDNAKYTVYLQMNSLKPEDTAVYSCAVDRAGIKLAAGYDYWGQGTQVTVSS | high polyreactivity
12 | QVQLVESGGGLVQAGGSLRLSCAASGRIFKGYAMGWYRQAPGKERELVASISKRGVSTYYADSVKGRFTISRDNAKNTVYLQMNSLKPEDTAVYYCNARAPGYYYTRYDYWGQGTQVTVSS | high polyreactivity
13 | QVQLVESGGGLVQAGGSLRLSCAASGSTFAYYAMGWYRQAPGKERELVAGISGSGGSTYYADSVKGRFTISRDNAKNTVYLQLNSLKPEDTAVYYCAVVQRSKRTYPWYDYWGQGTQVTVSS | low polyreactivity
14 | QVQLVESGGRLVQAGGSLRLSCAASGSTFTKYALGWYRPAPGKERELVAAISRSGGSTYYADSVKGRFSISRDNAKNTVYLQMNSLKPEDTAVYYCAARDSSRNYFGDGARDYWGQCTQVTVSS | high polyreactivity
15 | QVQLVESGGGLVQAGGSLRLSCAASGSIFAWYAMGRYRQAPGKEMELVAAIRYRGDGTYYADSVKGRFTISRDNAKNTVYLQMNSLKPEDTAVYYCAADSRVYRGGYIYRYGYWGQGTQVTVSS | low polyreactivity
16 | QVQLVESGGGLLQAGGSLRLSCSASGRIFPSYAMGWYRQAPGKERELVAAISSSGGRTYYADSVKGRFTISRDNAKNTVYLQLNSLKPEDTAVYYCAARWVQYGVRYDFWGQGTQVTVSS | high polyreactivity
17 | QVQLVESGGGLVQAGGSLRLSCAASGSTFSRYAMGWYRQAPGKERELVAAISWGGNTYYADSVKGRFTISRDNAKNTVYLQMNSLKPEDTAVYYCNRYSKLYNTMDYWGQGTQVTVSS | high polyreactivity
18 | QVQLEESGGGLVQAGGSLRLSCAASGSTFPGNALGWYRQAPGKERELVAAITSSGGSTDYADSVKGRFTISRDNAKNTVYLQMNSLKPEDTAVYYCAADGEDSLWTGYDYDYWGQGTQVTVSS | low polyreactivity
19 | QVQLVESVGGLVQAGGSLRLSCAASGSIFWWYAMGLARQAPGKERELVAAISTRDGNTYYADSVKGRFTISRDNANNTVYLQMNSLKPEDTAVYYCAADYFRYYPYDYWGQGTQVTVSS | low polyreactivity
20 | QVQLVESGGGLVQAGGSLRLSCAASGFTFWYYAMGWYRQAPGKEREFVASISWNGGRTYYADSVKGRITISRDNAKNTVYLQMNSLKPEDTAVYYCATRVIYSFTDLKGDYWGQGTLVTVSS | high polyreactivity
21 | QVQLVESGGGLVQAGGSLRLSCAASGRIFYRNGMGWYRQAPGKERELVAAISYSGGRTYYADSVKGRFTISRYNAKNTVYLQMNSLKPEDTAVYYCAAQWFEDFLYPWLEYDYWGQGTQVTVSS | high polyreactivity
22 | QVQLVESVGGLVQAGGSLRLSCAASGLIFSRYAMGWYRQAPGKERELVAAITSGTSTYYADSVKGRFTISRDNAKNTVYLQMNSLKPEDTAVYYCARRYRGGYKYDYWGQGTQVTVSS | high polyreactivity

Row | Sequence | polyreactivity (PSR sort gate)
23 | QVQLVESGGGLVQAGGSLRLSCAASGSIFRYYAMGWYRQAPGKDRELVAVITRGGSTYYADSVKGRFTISRDNAKNTVYLQMNSLKPEDTAVYYCAADSWPAGLDRGYWGQGTQVTVSS | low polyreactivity
24 | QVQLVESGGGLVQAGGSLRLSCAASGFTFWFYAMGWYRQAPGKEREFVAGISRRGGSTYYADSVKGRFTISRDNAKNTVYLQMNSLKPEDTAVYYCASRQFHNGVTTAGYGYWGQGTQVTVSS | high polyreactivity
25 | QVQLVESGGGLVQAGGSLRLTCAASGSIFGYAMGWSRQAPGKERELVAALSFSGVSTYYAYSVKGRFTISRDNAKNTVYLQMNSLKPEDTAVYYCNAYSDGDEDYWGQGTQVTVSS | low polyreactivity
26 | QVQLVESGGGLVQAGGSLRLSCAASGIIFRYYAMGWYRQAPGKERELVATITIGGRTNYADSVKGRFTISRDNAKNTVYLQMNCLKPEDTAVYYCASRVYKYGSVYHRYDYWGQGTQVTVSS | high polyreactivity
27 | QVRLVESGGGLVQAGGSLRLSCAAYGSTFKTYAMGWYRPAPGKERELVAAISAGGGSTYYADSVKGRFTISRDNAKNTVYLQMNSLKPEDTAVYYCAAAYIYAGWDYEYWGQGTQVTVSS | low polyreactivity
28 | QVQLVESGGGLVQAGGTLRLICADSGFTFPVYAMGWSRQAPGKERQLVAAITRSGGRTYYADSVKGRFRISRDNAKNTVYLQMNSLKPEDTAFYYCNADYPYGPGSRVRYDYWGQGTQVTVSS | high polyreactivity
29 | QVQLVESGGGLVQAGGSLRLSCAASGSTFRSYAMGWYRQAPWKERELVAAISSSGGSTYYADSVKGRFTISRDNANNTVYLQMNSLKPEDTAVYICAADFLYYEYDYWGQGTQVTVSS | low polyreactivity
30 | QDQLQESGGGLVQAGGSLRLSCAASGRIIYGYAMGWYRQAPGKERELVAAITATYYADSVKGRFTISRDNAKNTVYLQMNSLKPEDTAVYYCNAYLSPKQPLSPPDPTFEGGYWGQGTQVTVSS | low polyreactivity
31 | QVQLVESGGGLVQAGGTLRLSCAATGSTFPYNAMGWYRQAPGKERELVAAINSAGGTNYADSVKGRFTISRDNAKNTVYLQMNSLKPEDTAVYYCAADGSGYYDWYYYWGQGTQVTVSS | low polyreactivity
32 | QVQLVESGGGLVQAGGSLRLSCAASGSIFYYNAMGWYRQAPGKERELVATIRSGGNTNYADSVKGRFTISRDNAKNTVYLQMNSLKPEDTAVYYCAARGAYHGYRYDSWGQGTQVTVSS | low polyreactivity
33 | QDQLVESGGGLVQAGGSLRLSSAASGSTFDSNAMAWYRQAPGKERELVAAISSSGGRTSYADSVKGRFTISRDNAKNTVYLQMNSLKPEDTAVYYCADRFKSVDYVQYYYWGQGTQVTVSS | low polyreactivity
34 | QVQLVESGGGLVQAGGSLRLICAASGITFARNTRGWYRQAPGKERELVAAIDSGGNTYADSVKGRFTISRDNAKNTVYLQMNSLKPEDTAVYYCAVDGGEFSSYGYWGQGTQVTVSS | low polyreactivity
35 | QVQLVESGGGLLQAGGSLRLSCAASGSTFKFNAMGWYRQAPRKERELVAAISNRGGTTYYADSVKGRFTISRDNAKNTVYFHMNSLKPEDTAVYYCAAGRVQSYYYWGQGTQVTVSS | high polyreactivity
36 | QVQLVESGGGLVQAGGSLRLSCAASGSIFLRYGMGWYRQAPGKERELVAAISRGGGSTYYADSVKGRFTISRDNAKNTVYLQMNSLKPEDTAVYYCNKASYRYSSDYDYWGQGTQVTVSS | high polyreactivity
37 | QVQLVESGGGLVQAGGSLRLSCAASGYNFIVYTMGWYRQAPGKERELVAAISSGGITDYADSVKGRFTISRDNAKNTVYLQMNSLKPEDTAVYYWGQGTQVTVSS | low polyreactivity
38 | QVQLVESGGGLVQAGGSLRLSCAASGSTFDIYAMGWYRQAPGKERELVAVISGGDGSTYYADSVKGRFTISRDNAKNTVYLQMNSLKPEDTAVYFCAADYISPGYWDGEYDCWGQGTQVTVSS | low polyreactivity
39 | QVQLQESGGGLVQAGGSRRLSCAASGTIFTARFMGWYRQATGKERELVSTITDGGNTNHAESVKCRFTISRDNAKNTGSLQMNSLKPEYAAVYYCAAGEVDNDTLLYWGQGSQVTVSS | low polyreactivity
40 | QVQLVESGRGLVQAGGSLRLSCAASGIIFGSYAMGWYRQAPGKEMELVAAISRGTSTYYADSVKGRFTISRDNAKITVYLQMNSLNPEDTAVYYCAATRQEYGPHSRFVYVNYYYWGQGTQVTVSS | low polyreactivity
41 | QVQLVESGGGLVQAGGSLRLSCAASGRIFTAYYAMGWYRQAPGKERELVASISSSGTSTYADSVKGRFTISRDNAKNTVYLQMNSLKPEDTAVYYCATRKLRTRRYDYGYWGQGTQVNVSS | low polyreactivity
42 | QVQLVESGGGLVHAGGSLRLSCAASGRTFVLYVMGWYRQAPGKETEFVADINAGGGSTYYADSVKGRFTISRDNAKNTVYLQMNSLKPEDTAVYYCAATRVLGQLFRFGYWGQGTQVSVSS | low polyreactivity
43 | QVQLVESGGGLVQAGGSLRLSCAASGSIFRYNAMGWYRKAPGKERELVAAISYRGGSTYYADSVKGRFTISRDNAKITVYLQINSLKPEDTAVYYCAAAVQYSGYRFNYWGQGTQVTVSS | high polyreactivity
